Assay results published in publication PMC4797271, “The quorum-sensing regulator ComA from Bacillus subtilis activates transcription using topologically distinct DNA motifs” (Nucleic Acids Research, 2015).

Molecular target: T1, sigma-factor σ^A from Bacillus subtilis (Bacillus subtilis W168, UniProt P06224 1-371)
T1 construct: RNA polymerase sigma factor A (house-keeping sigma factor), Bacillus subtilis W168; gene amplified from the chromosome and cloned into pBAD18; also called house-keeping sigma-factor σ^A; σ^A-subunit of RNAP; source: E. coli, pBAD18, purified on Ni-NTA columns
T1 sequence (P06224 whole entry): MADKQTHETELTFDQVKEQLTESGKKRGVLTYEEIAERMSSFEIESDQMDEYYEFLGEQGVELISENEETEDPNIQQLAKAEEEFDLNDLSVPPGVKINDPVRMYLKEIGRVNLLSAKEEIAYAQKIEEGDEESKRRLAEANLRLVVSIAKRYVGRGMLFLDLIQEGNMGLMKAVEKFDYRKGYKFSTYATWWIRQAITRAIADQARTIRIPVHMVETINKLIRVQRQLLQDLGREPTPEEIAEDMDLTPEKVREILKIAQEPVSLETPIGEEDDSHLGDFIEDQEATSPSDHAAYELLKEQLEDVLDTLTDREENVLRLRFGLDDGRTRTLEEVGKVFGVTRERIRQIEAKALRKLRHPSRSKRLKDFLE
Test: native gel or EMSA; super-shift of ComA-bound biotinylated rapA promoter DNA (ComA at full occupancy) on adding α or σ^A; 10 mM HEPES pH 7.6, 2 mM MgCl2, 0.1 mM EDTA, 200 mM KCl, 5 mM DTT, 10% glycerol; 20 min at room temperature; native 8% polyacrylamide gel, 0.5x TBE
Conditions: both partners purified

binding result: binds
B1: ComA from Bacillus subtilis (His6-tagged ComA protein) (natural protein, Bacillus subtilis W168, UniProt P14204 1-214, looked up)
chain: MKKILVIDDHPAVMEGTKTILETDSNLSVDCLSPEPSEQFIKQHDFSSYDLILMDLNLGGEVNGMELSKQILQENPHCKIIVYTGYEVEDYFEEAIRAGLHGAISKTESKEKITQYIYHVLNGEILVDFAYFKQLMTQQKTKPAPSSQKEQDVLTPRECLILQEVEKGFTNQEIADALHLSKRSIEYSLTSIFNKLNVGSRTEAVLIAKSDGVL
notes: Transcription factor ComA, Bacillus subtilis W168; gene amplified from the chromosome and cloned into pBAD18; At full occupancy the rapA promoter probably carries more than one dimer; also called recombinant His6-tagged ComA; source: E. coli, pBAD18, purified on Ni-NTA columns; not shown: His6, N-terminal, kept
